For this experiment, the target named is T1, Recombinant hIL-21-Fc (AcroBiosystems) (human, UniProt Q9HBE4 30-162).
T1 construct: bought; also called rhIL-21; not shown: Fc of the bought reagent, not described
As to the kind of experiment: SPR, Fab on captured rhIL-21-Fc.

Results on 18 molecules are retold here after EP4671273A1 (Anaveon AG, dated 2025).

A value given as a limit tells only on which side of the number the result lay.

T1 sequence (Q9HBE4 30-162): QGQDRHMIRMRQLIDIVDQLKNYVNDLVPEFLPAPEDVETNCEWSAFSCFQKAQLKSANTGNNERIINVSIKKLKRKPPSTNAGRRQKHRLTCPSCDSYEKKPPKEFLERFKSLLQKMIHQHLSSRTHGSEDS

B1: ZAP122m1 Fab (Fab, V domains shown)
VH: QVQLQESGPGLVKPSETLSLTCTVSGGSISSDFWGWIRQPPGKGLEWIGYISSRGSTNYNPSLKRRVTISVDTSRNQFSLKLSSVTAADTAVYYCARSAGVTDFDFWGQGTLVTVSS
VL: DIQMTQSPSSVSASVGDRVTITCRASQGISSWLAWYYHKPGKAPKLLIYVASSLQSGVPSRFSGSGSGTDFTLTISSLQPEDFATYYCQQANSFPLTFGGGTKVEIK
notes: Fab
One may read the Kd as the free concentration of one partner at which half of the binding sites on the other are occupied at equilibrium, for simple one-to-one binding. As a reminder, the koff is the rate constant with which the complex falls apart. What is called kon is the rate constant with which the complex forms. For the molecule B1, the Kd is 51.7 pM, the koff was 1.91e-05 s⁻¹ and the association rate constant (kon) is 369000 M⁻¹ s⁻¹.

B2: ZAP122m7 Fab (Fab, V domains shown)
VH: QVQLQESGPGLVKPSETLSLTCTVSGGSISSDFWGWIRQPPGKGLEWIGYISSRGSTNYNPSLKRRVTISVDTSRNQFSLKLSSVTAADTAVYYCARSAGVTDFDFWGQGTLVTVSS
VL: DIQMTQSPSSVSASVGDRVTITCRASQGISSWLAWYQHKPGKAPKLLIYVASSLQSGVPSRFSGSGSGTDFTLTISSLQPEDFATYYCQQANAFPLTFGGGTKVEIK
notes: Fab
As for B2, the Kd is less than 25.8 pM, the koff was less than 1e-05 s⁻¹ and the kon came out at 387000 M⁻¹ s⁻¹.

B3: ZAP122m14 Fab (Fab, V domains shown)
VH: QVQLQESGPGLVKPSETLSLTCTVSGGSISSDFWSWIRQPPGKGLEWIGYISSRGSTNYNPSLKRRVTISVDTSRNQFSLKLSSVTAADTAVYYCARSAGVTDFDFWGQGTLVTVSS
VL: DIQMTQSPSSVSASVGDRVTITCRASQGISSWLAWYQHKPGKAPKLLIYVASSLQSGVPSRFSGSGSGTDFTLTISSLQPEDFATYYCQQANSFPLTFGGGTKVEIK
notes: Fab
For B3, the Kd worked out at 1010 pM, the koff was 0.000263 s⁻¹ and the kon amounted to 260000 M⁻¹ s⁻¹.

B4: ZAP122m16 Fab (Fab, V domains shown)
VH: QVQLQESGPGLVKPSETLSLTCTVSGGSISSDFWGWIRQPPGKGLEWIGYISYRGSTNYNPSLKRRVTISVDTSRNQFSLKLSSVTAADTAVYYCARSAGVTDFDFWGQGTLVTVSS
VL: DIQMTQSPSSVSASVGDRVTITCRASQGISSWLAWYQHKPGKAPKLLIYVASSLQSGVPSRFSGSGSGTDFTLTISSLQPEDFATYYCQQANSFPLTFGGGTKVEIK
notes: Fab
On to B4, for which the Kd was less than 28.3 pM, the koff is less than 1e-05 s⁻¹ and the kon came to 353000 M⁻¹ s⁻¹.

B5: ZAP122m11 Fab (Fab, V domains shown)
VH: QVQLQESGPGLVKPSETLSLTCTVSGGSISSDFWGWIRQPPGKGLEWIGYISSRGSTNYNPSLKRRVTISVDTSRNQFSLKLSSVTAADTAVYYCARSAGVTDFDFWGQGTLVTVSS
VL: DIQMTQSPSSVSASVGDRVTITCRASQGISSWLAWYQHKPGKAPKLLIYVASSLQSGVPSRFSGSGSGTDFTLTISSLQPEDFATYYCQQANSFPLAFGGGTKVEIK
notes: Fab
Take B5: the Kd came to 40.4 pM, the koff is 1.46e-05 s⁻¹ and the kon worked out at 363000 M⁻¹ s⁻¹.

B6: ZAP122m17 Fab (Fab, V domains shown)
VH: QVQLQESGPGLVKPSETLSLTCTVSGGSISSDFWGWIRQPPGKGLEWIGYISSSGSTNYNPSLKRRVTISVDTSRNQFSLKLSSVTAADTAVYYCARSAGVTDFDFWGQGTLVTVSS
VL: DIQMTQSPSSVSASVGDRVTITCRASQGISSWLAWYQHKPGKAPKLLIYVASSLQSGVPSRFSGSGSGTDFTLTISSLQPEDFATYYCQQANSFPLTFGGGTKVEIK
notes: Fab; also called clone m17
As to B6, the Kd was 84.2 pM, the koff was 2.81e-05 s⁻¹ and the kon came out at 334000 M⁻¹ s⁻¹.

B7: ZAP122m12 Fab (Fab, V domains shown)
VH: QVQLQESGPGLVKPSETLSLTCTVSGGSISSYFWGWIRQPPGKGLEWIGYISSRGSTNYNPSLKRRVTISVDTSRNQFSLKLSSVTAADTAVYYCARSAGVTDFDFWGQGTLVTVSS
VL: DIQMTQSPSSVSASVGDRVTITCRASQGISSWLAWYQHKPGKAPKLLIYVASSLQSGVPSRFSGSGSGTDFTLTISSLQPEDFATYYCQQANSFPLTFGGGTKVEIK
notes: Fab
As to B7, the Kd was 8830 pM, the koff is 0.00424 s⁻¹ and the kon came to 481000 M⁻¹ s⁻¹.

B8: ZAP122m3 Fab (Fab, V domains shown)
VH: QVQLQESGPGLVKPSETLSLTCTVSGGSISSDFWGWIRQPPGKGLEWIGYISSRGSTNYNPSLKRRVTISVDTSRNQFSLKLSSVTAADTAVYYCARSAGVTDFDFWGQGTLVTVSS
VL: DIQMTQSPSSVSASVGDRVTITCRASQGISSWLAWYQHKPGKAPKLLIYAASSLQSGVPSRFSGSGSGTDFTLTISSLQPEDFATYYCQQANSFPLTFGGGTKVEIK
notes: Fab
With B8, the Kd was 251 pM, the koff was found to be 9.3e-05 s⁻¹ and the kon is 370000 M⁻¹ s⁻¹.

B9: ZAP122m6 Fab (Fab, V domains shown)
VH: QVQLQESGPGLVKPSETLSLTCTVSGGSISSDFWGWIRQPPGKGLEWIGYISSRGSTNYNPSLKRRVTISVDTSRNQFSLKLSSVTAADTAVYYCARSAGVTDFDFWGQGTLVTVSS
VL: DIQMTQSPSSVSASVGDRVTITCRASQGISSWLAWYQHKPGKAPKLLIYVASSLQSGVPSRFSGSGSGTDFTLTISSLQPEDFATYYCQQAASFPLTFGGGTKVEIK
notes: Fab
In the case of B9, the Kd was 37.9 pM, the koff stood at 1.43e-05 s⁻¹ and the on-rate (kon) was 379000 M⁻¹ s⁻¹.

B10: ZAP122m15 Fab (Fab, V domains shown)
VH: QVQLQESGPGLVKPSETLSLTCTVSGGSISSDFWGWIRQPPGKGLEWIGYIYSRGSTNYNPSLKRRVTISVDTSRNQFSLKLSSVTAADTAVYYCARSAGVTDFDFWGQGTLVTVSS
VL: DIQMTQSPSSVSASVGDRVTITCRASQGISSWLAWYQHKPGKAPKLLIYVASSLQSGVPSRFSGSGSGTDFTLTISSLQPEDFATYYCQQANSFPLTFGGGTKVEIK
notes: Fab
For the molecule B10, the Kd is less than 17.4 pM, the koff is less than 1e-05 s⁻¹ and the kon amounted to 574000 M⁻¹ s⁻¹.

B11: ZAP122m18 Fab (Fab, V domains shown)
VH: QVQLQESGPGLVKPSETLSLTCTVSGGSISSDFWGWIRQPPGKGLEWIGYISSRGSTNYNPSLKSRVTISVDTSRNQFSLKLSSVTAADTAVYYCARSAGVTDFDFWGQGTLVTVSS
VL: DIQMTQSPSSVSASVGDRVTITCRASQGISSWLAWYQHKPGKAPKLLIYVASSLQSGVPSRFSGSGSGTDFTLTISSLQPEDFATYYCQQANSFPLTFGGGTKVEIK
notes: Fab; also called clone m18
B11: the Kd turned out to be 46.3 pM, the koff stood at 1.4e-05 s⁻¹ and the kon worked out at 302000 M⁻¹ s⁻¹.

B12: ZAP122m13 Fab (Fab, V domains shown)
VH: QVQLQESGPGLVKPSETLSLTCTVSGGSISSDYWGWIRQPPGKGLEWIGYISSRGSTNYNPSLKRRVTISVDTSRNQFSLKLSSVTAADTAVYYCARSAGVTDFDFWGQGTLVTVSS
VL: DIQMTQSPSSVSASVGDRVTITCRASQGISSWLAWYQHKPGKAPKLLIYVASSLQSGVPSRFSGSGSGTDFTLTISSLQPEDFATYYCQQANSFPLTFGGGTKVEIK
notes: Fab
As to B12, the Kd amounted to 56.5 pM, the koff was 1.78e-05 s⁻¹ and the kon came out at 316000 M⁻¹ s⁻¹.

B13: ZAP122m5 Fab (Fab, V domains shown)
VH: QVQLQESGPGLVKPSETLSLTCTVSGGSISSDFWGWIRQPPGKGLEWIGYISSRGSTNYNPSLKRRVTISVDTSRNQFSLKLSSVTAADTAVYYCARSAGVTDFDFWGQGTLVTVSS
VL: DIQMTQSPSSVSASVGDRVTITCRASQGISSWLAWYQHKPGKAPKLLIYVASSLQSGVPSRFSGSGSGTDFTLTISSLQPEDFATYYCQAANSFPLTFGGGTKVEIK
notes: Fab
B13: the Kd is no more than 88 pM, the koff is no more than 1e-05 s⁻¹ and the kon turned out to be 114000 M⁻¹ s⁻¹.

B14: ZAP122m2 Fab (Fab, V domains shown)
VH: QVQLQESGPGLVKPSETLSLTCTVSGGSISSDFWGWIRQPPGKGLEWIGYISSRGSTNYNPSLKRRVTISVDTSKNQFSLKLSSVTAADTAVYYCARSAGVTDFDFWGQGTLVTVSS
VL: DIQMTQSPSSVSASVGDRVTITCRASQGISSWLAWYQHKPGKAPKLLIYVASSLQSGVPSRFSGSGSGTDFTLTISSLQPEDFATYYCQQANSFPLTFGGGTKVEIK
notes: Fab
Take B14: the Kd is 34 pM, the koff came to 1.23e-05 s⁻¹ and the kon amounted to 363000 M⁻¹ s⁻¹.

B15: ZAP122m9 Fab (Fab, V domains shown)
VH: QVQLQESGPGLVKPSETLSLTCTVSGGSISSDFWGWIRQPPGKGLEWIGYISSRGSTNYNPSLKRRVTISVDTSRNQFSLKLSSVTAADTAVYYCARSAGVTDFDFWGQGTLVTVSS
VL: DIQMTQSPSSVSASVGDRVTITCRASQGISSWLAWYQHKPGKAPKLLIYVASSLQSGVPSRFSGSGSGTDFTLTISSLQPEDFATYYCQQANSFALTFGGGTKVEIK
notes: Fab
Regarding B15, the Kd worked out at 249 pM, the koff came out at 5.93e-05 s⁻¹ and the kon was 238000 M⁻¹ s⁻¹.

B16: ZAP122m8 Fab (Fab, V domains shown)
VH: QVQLQESGPGLVKPSETLSLTCTVSGGSISSDFWGWIRQPPGKGLEWIGYISSRGSTNYNPSLKRRVTISVDTSRNQFSLKLSSVTAADTAVYYCARSAGVTDFDFWGQGTLVTVSS
VL: DIQMTQSPSSVSASVGDRVTITCRASQGISSWLAWYQHKPGKAPKLLIYVASSLQSGVPSRFSGSGSGTDFTLTISSLQPEDFATYYCQQANSAPLTFGGGTKVEIK
notes: Fab
On to B16, for which the Kd was 9490 pM, the koff worked out at 0.00251 s⁻¹ and the kon was found to be 264000 M⁻¹ s⁻¹.

B17: ZAP122m10 Fab (Fab, V domains shown)
VH: QVQLQESGPGLVKPSETLSLTCTVSGGSISSDFWGWIRQPPGKGLEWIGYISSRGSTNYNPSLKRRVTISVDTSRNQFSLKLSSVTAADTAVYYCARSAGVTDFDFWGQGTLVTVSS
VL: DIQMTQSPSSVSASVGDRVTITCRASQGISSWLAWYQHKPGKAPKLLIYVASSLQSGVPSRFSGSGSGTDFTLTISSLQPEDFATYYCQQANSFPATFGGGTKVEIK
notes: Fab
With B17, the Kd was 2400 pM, the koff turned out to be 0.000613 s⁻¹ and the kon was found to be 256000 M⁻¹ s⁻¹.

B18: ZAP122m4 Fab (Fab, V domains shown)
VH: QVQLQESGPGLVKPSETLSLTCTVSGGSISSDFWGWIRQPPGKGLEWIGYISSRGSTNYNPSLKRRVTISVDTSRNQFSLKLSSVTAADTAVYYCARSAGVTDFDFWGQGTLVTVSS
VL: DIQMTQSPSSVSASVGDRVTITCRASQGISSWLAWYQHKPGKAPKLLIYVASSLQSGVPSRFSGSGSGTDFTLTISSLQPEDFATYYCAQANSFPLTFGGGTKVEIK
notes: Fab
With B18, the Kd was 3490 pM, the koff came to 0.000253 s⁻¹ and the kon worked out at 72400 M⁻¹ s⁻¹.
